For data set [1], the system named is ferrichrome-mediated iron transport. Nature of the data set: [55Fe]-ferrichrome uptake, ExbD cys substitutions, with or without CuoP treatment. The class given is cell-based, Escherichia coli. To be noted: for activity: initial rate of ferrichrome-mediated iron transport relative to wild-type plasmid-encoded ExbD: non-reducing conditions, substitution expressed to native ExbD levels, strain RA1045. How it is done:
Since CuoP treatment catalyzed almost 100% dimer formation for some of the cys substitutions, attempts were made to determine activity of the dimeric form. […] The amount of CuoP was reduced 10-fold to 0.03 mM and cells had to be suspended in fully supplemented M9 medium as described in Experimental Procedures.
Activity assays. Initial rates of [^55Fe]-ferrichrome uptake were determined. For assays where cultures were treated with copper-(1,10-phenanthroline)3, harvested cells were pelleted, resuspended in 1×M9 supplemented as described above (no sodium propionate added), and treated with an equal volume 0.06 mM CuoP ([final] 0.03 mM) or 0.5 mM sodium phosphate buffer, pH 7.4 (buffer only) for 5 min, at 37° C. with aeration. Cells were pelleted, and the standard iron transport protocol was followed starting with resuspension in the assay medium.
In all assays the CuoP solution was removed and assays carried out in identical media, but the medium present during the 5 min CuoP treatment was important and differentially affected activity of a wild-type strain.

Another data set has as its system E. coli. Nature of the data set: Spot titer assay (sensitivity to TonB-dependent colicins and bacteriophage). The class given is cell-based, Escherichia coli. Conditions: three platings. How it is done: Activity assays: Spot titer assays were performed. Initial rates of [^55Fe]-ferrichrome uptake were determined.
Spot titers, which are capable of detecting very low levels of TonB activity, measure sensitivity to colicins and bacteriophage that enter and subsequently kill E. coli via the TonB system. […] Consistent with their insensitivity to phage and colicins, the other 13 deletion variants supported no iron transport.

The mark [2] stands for this setting: strain RA1017 (ΔExbBD, ΔTolQRA).
[3] abbreviates: strain RA1017/pKP724 (ExbB, ExbDΔ132-141).
Setting [4] is: strain RA1017/pKP752 (ExbB, ExbDΔ102-111).
The mark [5] stands for this setting: strain RA1017/pKP753 (ExbB, ExbDΔ92-101).
Where [6] appears, read: strain RA1017/pKP754 (ExbB, ExbDΔ82-91).
Setting [7] is: strain RA1017/pKP755 (ExbB, ExbDΔ72-81).
Setting [8] is: strain RA1017/pKP756 (ExbB, ExbDΔ62-71).
The mark [9] stands for this setting: strain RA1017/pKP757 (ExbB, ExbDΔ52-61).
The mark [10] stands for this setting: strain RA1017/pKP758 (ExbB, ExbDΔ32-41).
The mark [11] stands for this setting: strain RA1017/pKP759 (ExbB, ExbDΔ22-31).
[12] abbreviates: strain RA1017/pKP760 (ExbB, ExbDΔ12-21).
Where [13] appears, read: strain RA1017/pKP762 (ExbB, ExbDΔ42-51).
Where [14] appears, read: strain RA1017/pKP763 (ExbB, ExbDΔ112-121).
Where [15] appears, read: strain RA1017/pKP764 (ExbB, ExbDΔ122-131).

B1: ExbD I102C: ExbD cysteine substitution I102C (pKP1010) (protein)
chain: MAMHLNENLDDNGEMHDINVTPFIDVMLVLLIIFMVAAPLAIVDVKVNLPASTSTPQPRPEKPVYLSVKADNSMFIGNDPVTDETMITALNALTEGKKDITCFFRADKTVDYETLMKVMDTLHQAGYLKIGLVGEETAKAK
In the case of B1, the “activity: initial rate of ferrichrome-mediated iron transport relative to wild-type plasmid-encoded ExbD” value in data set [1] worked out at 80%.

B2: ExbD K108C: ExbD cysteine substitution K108C (pKP1016) (protein)
chain: MAMHLNENLDDNGEMHDINVTPFIDVMLVLLIIFMVAAPLAIVDVKVNLPASTSTPQPRPEKPVYLSVKADNSMFIGNDPVTDETMITALNALTEGKKDITIFFRADCTVDYETLMKVMDTLHQAGYLKIGLVGEETAKAK
Regarding B2, the “activity: iron transport relative to wild-type ExbD” value is on record as “at least 70%” in data set [1] (CuoP-treated (0.03 mM, 5 min, supplemented M9)) and 110% in data set [1] (overexpressed ExbD cys substitution). Also, the “activity: initial rate of ferrichrome-mediated iron transport relative to wild-type plasmid-encoded ExbD” value in data set [1] is around 110%.

B3: ExbD G96C: ExbD cysteine substitution G96C (pKP1004) (protein)
chain: MAMHLNENLDDNGEMHDINVTPFIDVMLVLLIIFMVAAPLAIVDVKVNLPASTSTPQPRPEKPVYLSVKADNSMFIGNDPVTDETMITALNALTECKKDITIFFRADKTVDYETLMKVMDTLHQAGYLKIGLVGEETAKAK
Take B3: the “activity: initial rate of ferrichrome-mediated iron transport relative to wild-type plasmid-encoded ExbD” value in data set [1] turned out to be 85%.

B4: Colicin B: TonB-dependent colicin; toxin that enters and kills E. coli via the TonB system; standard colicin preparation (protein, UniProt P05819 2-511, looked up)
Colicin-B: SDNEGSVPTEGIDYGDTMVVWPSTGRIPGGDVKPGGSSGLAPSMPPGWGDYSPQGIALVQSVLFPGIIRRIILDKELEEGDWSGWSVSVHSPWGNEKVSAARTVLENGLRGGLPEPSRPAAVSFARLEPASGNEQKIIRLMVTQQLEQVTDIPASQLPAAGNNVPVKYRLTDLMQNGTQYMAIIGGIPMTVPVVDAVPVPDRSRPGTNIKDVYSAPVSPNLPDLVLSVGQMNTPVRSNPEIQEDGVISETGNYVEAGYTMSSNNHDVIVRFPEGSGVSPLYISAVEILDSNSLSQRQEAENNAKDDFRVKKEQENDEKTVLTKTSEVIISVGDKVGEYLGDKYKALSREIAENINNFQGKTIRSYDDAMSSINKLMANPSLKINATDKEAIVNAWKAFNAEDMGNKFAALGKTFKAADYAIKANNIREKSIEGYQTGNWGPLMLEVESWVISGMASAVALSLFSLTLGSALIAFGLSATVVGFVGVVIAGAIGAFIDDKFVDELNHKIIK
As to B4, the “Susceptibility: highest five-fold dilution of a standard colicin preparation that provided an evident zone of clearing on a cell lawn” value is given as “T, T, T” in the data set on E. coli (setting [2]); “T, T, T” with E. coli (setting [3]); “T, T, T” in the data set on E. coli (setting [4]); “T, T, T” in the data set with E. coli (setting [5]); “T, T, T” in the data set on E. coli (setting [6]); “T, T, T” in the data set on E. coli (setting [7]). The “Susceptibility: highest five-fold dilution of a standard colicin preparation that provided an evident zone of clearing on a cell lawn” value in the data set with E. coli (setting [8]) was “T, T, T”; in the data set with E. coli (setting [9]), “T, T, T”; with E. coli (setting [10]), “T, T, T”; with E. coli (setting [11]), “T, T, T”; in the data set with E. coli (setting [12]), “T, T, T”; in the data set on E. coli (setting [13]), “T, T, T”. The “Susceptibility: highest five-fold dilution of a standard colicin preparation that provided an evident zone of clearing on a cell lawn” value with E. coli (setting [14]) is reported as “T, T, T”; with E. coli (setting [15]), “T, T, T”.

B5: Colicin M: TonB-dependent colicin; standard colicin preparation used in spot titers (protein, UniProt P05820 1-271, looked up)
Colicin-M: METLTVHAPSPSTNLPSYGNGAFSLSAPHVPGAGPLLVQVVYSFFQSPNMCLQALTQLEDYIKKHGASNPLTLQIISTNIGYFCNADRNLVLHPGISVYDAYHFAKPAPSQYDYRSMNMKQMSGNVTTPIVALAHYLWGNGAERSVNIANIGLKISPMKINQIKDIIKSGVVGTFPVSTKFTHATGDYNVITGAYLGNITLKTEGTLTISANGSWTYNGVVRSYDDKYDFNASTHRGIIGESLTRLGAMFSGKEYQILLPGEIHIKESGKR
In the case of B5, the “Susceptibility: highest five-fold dilution of a standard colicin preparation that provided an evident zone of clearing on a cell lawn” value is listed as “T, T, T” with E. coli (setting [2]); “T, T, T” in the data set on E. coli (setting [3]); “T, T, T” in the data set on E. coli (setting [4]); “T, T, T” in the data set with E. coli (setting [5]); “T, T, T” in the data set on E. coli (setting [6]); “T, T, T” with E. coli (setting [7]). Further, the “Susceptibility: highest five-fold dilution of a standard colicin preparation that provided an evident zone of clearing on a cell lawn” value in the data set on E. coli (setting [8]) is “T, T, T”; in the data set with E. coli (setting [9]), “T, T, T”; in the data set on E. coli (setting [10]), “T, T, T”; in the data set on E. coli (setting [11]), “T, T, T”; with E. coli (setting [12]), “T, T, T”; in the data set on E. coli (setting [13]), “T, T, T”. Besides, the “Susceptibility: highest five-fold dilution of a standard colicin preparation that provided an evident zone of clearing on a cell lawn” value is recorded as “T, T, T” in the data set on E. coli (setting [14]) and “T, T, T” with E. coli (setting [15]).

B6: Colicin Ia: TonB-dependent colicin; standard colicin preparation used in spot titers (protein, UniProt P06716 1-626, looked up)
Colicin-Ia: MSDPVRITNPGAESLGYDSDGHEIMAVDIYVNPPRVDVFHGTPPAWSSFGNKTIWGGNEWVDDSPTRSDIEKRDKEITAYKNTLSAQQKENENKRTEAGKRLSAAIAAREKDENTLKTLRAGNADAADITRQEFRLLQAELREYGFRTEIAGYDALRLHTESRMLFADADSLRISPREARSLIEQAEKRQKDAQNADKKAADMLAEYERRKGILDTRLSELEKNGGAALAVLDAQQARLLGQQTRNDRAISEARNKLSSVTESLNTARNALTRAEQQLTQQKNTPDGKTIVSPEKFPGRSSTNHSIVVSGDPRFAGTIKITTSAVIDNRANLNYLLSHSGLDYKRNILNDRNPVVTEDVEGDKKIYNAEVAEWDKLRQRLLDARNKITSAESAVNSARNNLSARTNEQKHANDALNALLKEKENIRNQLSGINQKIAEEKRKQDELKATKDAINFTTEFLKSVSEKYGAKAEQLAREMAGQAKGKKIRNVEEALKTYEKYRADINKKINAKDRAAIAAALESVKLSDISSNLNRFSRGLGYAGKFTSLADWITEFGKAVRTENWRPLFVKTETIIAGNAATALVALVFSILTGSALGIIGYGLLMAVTGALIDESLVEKANKFWGI
On to B6, for which the “Susceptibility: highest five-fold dilution of a standard colicin preparation that provided an evident zone of clearing on a cell lawn” value in the data set on E. coli (setting [2]) is “T, T, T”; with E. coli (setting [3]), “T, T, T”; in the data set on E. coli (setting [4]), “T, T, T”; in the data set on E. coli (setting [5]), “T, T, T”; with E. coli (setting [6]), “T, T, T”; with E. coli (setting [7]), “T, T, T”. The “Susceptibility: highest five-fold dilution of a standard colicin preparation that provided an evident zone of clearing on a cell lawn” value is given as “T, T, T” in the data set on E. coli (setting [8]); “T, T, T” in the data set on E. coli (setting [9]); “T, T, T” with E. coli (setting [10]); “T, T, T” in the data set with E. coli (setting [11]); “T, T, T” with E. coli (setting [12]); “T, T, T” in the data set with E. coli (setting [13]). Moreover, the “Susceptibility: highest five-fold dilution of a standard colicin preparation that provided an evident zone of clearing on a cell lawn” value in the data set with E. coli (setting [14]) is reported as “T, T, T”; with E. coli (setting [15]), “T, T, T”.

The values above are taken from patent US20120208744A1, “ANTI-MICROBIAL AGENTS AND COMPOSITIONS AND METHODS OF PRODUCTION AND USE THEREOF” (The Penn State Research Foundation, priority 2011, published 2012).
